{
  "source": "paper PMC12661434",
  "target": "StayRose (His-tagged StayGold bearing 3-aminotyrosine at Y58) (Cytaeis uchidae)",
  "assay": "SEC; Superdex 75 Increase 10/300 GL, 20 mM Hepes, 150 mM NaCl, pH 7.5, 0.8 ml/min; ~1 mg/ml (38 uM) protein loaded via a 0.5 ml loop",
  "data": [
    {"substance": "StayRose (His-tagged StayGold bearing 3-aminotyrosine at Y58)", "values": [
      {"measurement": "stoichiometry N", "value": 2}
    ]}
  ]
}
